Experimental data taken from US20180087039A1.
No end group written: not given here.

Molecular target: fibrinogen (free fibrinogen in rat plasma) (rat) (UniProt P06399)
Experiment: cell-based or functional assay

- free fibrinogen level in plasma after incubation ex vivo with RTL PA (80 µM): < 36 mg/dL
Binder: RTLAFVRFKKKAAVV-{K(lauroyl)-NH2} (also: self-assembled nanofiber) [RTL PA nanofiber (…(K)-C12 peptide amphiphile)]
